In US8987433B2, “Variant isoprenoid producing enzymes and uses thereof” (Sapphire Energy, Inc., priority 2009, dated 2015):
“Also recorded” adds a separate entry of the source. Like-named read-outs stand apart in the source and are kept apart here.

Legend:
E. coli XL1-blue cells = assay: Minimum inhibitory concentration (MIC) of cefotaxime on plated bacterial cells; type: cell-based; conditions: for MIC: Escherichia coli, XL1BLUECELLS, 24 h, about 1,000 cells per plate, 24 hours at 37° C.
Description: The minimum inhibitory concentration (MIC) of cefotaxime on bacterial cells lacking a plasmid is determined by plating 10 μl of a 10^−2 dilution of an overnight bacterial culture (about 1000 cfu) of E. coli XL1-blue cells (Stratagene, San Diego Calif.) on plates with varying levels of cefotaxime (Sigma, St. Louis Mo.), followed by incubation for 24 hours at 37° C.
Growth on cefotaxime is sensitive to the density of cells, and therefore similar numbers of cells needed to be plated on each plate (obtained by plating on plain LB plates). Platings of 1000 cells are consistently performed.
After digestion of the 900 bp product with the terminal restriction enzyme SfiI and agarose gel purification, the 900 bp product is ligated into the vector pUC182Sfi at the unique SfiI site with T4 DNA ligase (BRL, Gaithersburg Md.). The mixture is electroporated into E. coli XL1-blue cells and plated on LB plates with 0.32-0.64 μg/ml of cefotaxime (Sigma, St. Louis Mo.). The cells were grown for up to 24 hours at 37° C. and the resulting colonies are scraped off the plate as a pool and used as the PCR template for the next round of shuffling.
The transformants obtained after each of three rounds of shuffling are plated on increasing levels of cefotaxime. The colonies (>100, to maintain diversity) from the plate with the highest level of cefotaxime are pooled and used as the template for the PCR reaction for the next round.
Colonies obtained at 5-10 μg/ml are used for a third round similar to the first and second rounds except the cells are plated on LB plates having 80-160 μg/ml of cefotaxime. After the third round, colonies are obtained at 80-160 μg/ml, and after replating on increasing concentrations of cefotaxime, colonies could be obtained at up to 320 μg/ml after 24 hours at 37° C.
Growth on cefotaxime is dependent on the cell density, requiring that all the MICs be standardized (in our case to about 1,000 cells per plate). […] The 5 largest colonies grown at 1,280 μg/ml are plated for single colonies twice, and the SfiI inserts are analyzed by restriction mapping of the colony PCR products.

[1] = system: Gallus gallus FPP synthase (prenyl transferase activity); assay: Detection of prenyl transferase activity by luminescence measurement (PPi light assay); type: biochemical; conditions: DMAPP and IPP substrates, two hours at room temperature, in vitro synthesized Strep-Tag protein, versus wild type control
Description: After gene assembly was completed, the NEB PURExpress in vitro protein synthesis kit was used according to the manufacturer's instructions to produce the variant FPP synthase proteins. After protein synthesis, Strep-Tag magnetic beads (IBA GmbH) were used to isolate the synthesized proteins, after washing the beads with assay buffer (25 mm HEPES pH 7.4, 10 mM MgCl2).
After synthesis, the activity level of the synthesized protein was measured as described in Example 5 by luminescence. Because most mutations are anticipated to be detrimental, it is unlikely for any pool of mutants to have a higher activity than the wild-type protein; pools with higher activity than […] must be deconvoluted to identify individual beneficial mutants.
The residue numbers are reported using the wild-type sequence numbering (SEQ ID NO: 1). The winning pools of nine variants are again resynthesized as discrete mutants and activity measurements are repeated.
This example describes the detection of prenyl transferase activity by luminescence measurement. In this example, an avian FPP synthase (Genbank Accession No. P08836) (SEQ ID NO: 1) was used as the parent prenyl transferase. The parent prenyl transferase was codon-optimized (SEQ ID NO: 21) and inserted into a vector. The nucleic acid sequence of SEQ ID NO: 22 was cloned into the bacterial expression vector pET-21a(+) (FIG. 10) under the control of a T7 promoter. A reaction buffer was produced by mixing 4 μl of 10× reaction buffer (250 mM HEPES pH 7.4, 100 mM MgCl2), 0.2 μl of 1M dithiothreitol, 1 μl of 10 mM DMAPP, 2 μl of 10 mM IPP, and 31.8 μl of water. 1 ng of the Avian FPP synthase (SEQ ID NO: 22) was added to the 39 μl of reaction buffer in a white 96 well microplate. The reaction was sealed with an adhesive plastic cover and allowed to progress for two hours at room temperature.
The PPi light detection and conversion reagents were prepared as instructed by the manufacturer (Lonza Group Ltd., Basel, Switzerland). After the two hour incubation, 40 μl of the conversion reagent, and 40 μl of the detection reagent were added to the wells of the microplate, and the microplate was sealed with an aluminum foil cover. After sixty minutes, the aluminum cover was removed, and the luminescence emitted from each well was measured with a 96 well plate reader in glow luminescence mode. The total luminescence is reported as Relative Luminescence Units (RLU). […] For this study, each pool is a mixture of variants at a single amino acid position.

**Q.** What does the source list for `CO/N=C(\C(=O)N[C@@H]1C(=O)N2C(C(=O)O)=C(COC(C)=O)CS[C@H]12)c1csc(N)n1` [cefotaxime]?
**A.** MIC (E. coli XL1-blue cells; read-out: MIC of cefotaxime, cells carrying the starting (unshuffled) gene on pUC18 derivative): ~0.02 µg/mL; MIC (E. coli XL1-blue cells; read-out: MIC of cefotaxime, mutant after the third round of shuffling and replating): 320 µg/mL; cefotaxime level at which growth is obtained (E. coli XL1-blue cells; at higher cell densities, after third round of shuffling): up to 1280 μg/ml; fold increased resistance to cefotaxime (E. coli XL1-blue cells; selected mutant versus starting gene): 16,000 fold

B1: Thr269Tyr: Gallus gallus FPP synthase (SEQ ID NO: 1) point mutation Thr269Tyr (protein, listed as Gallus gallus)
chain: MHKFTGVNAKFQQPALRNLSPVVVEREREEFVGFFPQIVRDLTEDGIGHPEVGDAVARLKEVLQYNAPGGKCNRGLTVVAAYRELSGPGQKDAESLRCALAVGWCIELFQAFFLVADDIMDQSLTRRGQLCWYKKEGVGLDAINDSFLLESSVYRVLKKYCRQRPYYVHLLELFLQTAYQTELGQMLDLITAPVSKVDLSHFSEERYKAIVKYKTAFYSFYLPVAAAMYMVGIDSKEEHENAKAILLEMGEYFQIQDDYLDCFGDPALYGKVGTDIQDNKCSWLVVQCLQRVTPEQRQLLEDNYGRKEPEKVAKVKELYEAVGMRAAFQQYEESSYRRLQELIEKHSNRLPKEIFLGLAQKIYKRQK
**Q.** B1 was tested. Which “prenyl transferase activity measured by luminescence, compared with wild type” value [1] did it give?
**A.** increased prenyl transferase activity as compared to the wild type protein; also recorded: activity greater than wild-type

**Q.** What about the “prenyl transferase activity measured by luminescence, compared with wild type” value ([1]; listed as Thr—269_Tyr) of the same molecule?
**A.** more activity than the wild type protein sequence

B2: Thr269Gln: Gallus gallus FPP synthase (SEQ ID NO: 1) point mutation Thr269Gln (protein, listed as Gallus gallus)
chain: MHKFTGVNAKFQQPALRNLSPVVVEREREEFVGFFPQIVRDLTEDGIGHPEVGDAVARLKEVLQYNAPGGKCNRGLTVVAAYRELSGPGQKDAESLRCALAVGWCIELFQAFFLVADDIMDQSLTRRGQLCWYKKEGVGLDAINDSFLLESSVYRVLKKYCRQRPYYVHLLELFLQTAYQTELGQMLDLITAPVSKVDLSHFSEERYKAIVKYKTAFYSFYLPVAAAMYMVGIDSKEEHENAKAILLEMGEYFQIQDDYLDCFGDPALQGKVGTDIQDNKCSWLVVQCLQRVTPEQRQLLEDNYGRKEPEKVAKVKELYEAVGMRAAFQQYEESSYRRLQELIEKHSNRLPKEIFLGLAQKIYKRQK
**Q.** Which results are given for B2?
**A.** prenyl transferase activity measured by luminescence, compared with wild type [1]: increased prenyl transferase activity as compared to the wild type protein; also recorded: activity greater than wild-type; prenyl transferase activity measured by luminescence, compared with wild type ([1]; listed as Thr—269_Gln): more activity than the wild type protein sequence

B3: Thr269Asp: Gallus gallus FPP synthase (SEQ ID NO: 1) point mutation Thr269Asp (protein, listed as Gallus gallus)
chain: MHKFTGVNAKFQQPALRNLSPVVVEREREEFVGFFPQIVRDLTEDGIGHPEVGDAVARLKEVLQYNAPGGKCNRGLTVVAAYRELSGPGQKDAESLRCALAVGWCIELFQAFFLVADDIMDQSLTRRGQLCWYKKEGVGLDAINDSFLLESSVYRVLKKYCRQRPYYVHLLELFLQTAYQTELGQMLDLITAPVSKVDLSHFSEERYKAIVKYKTAFYSFYLPVAAAMYMVGIDSKEEHENAKAILLEMGEYFQIQDDYLDCFGDPALDGKVGTDIQDNKCSWLVVQCLQRVTPEQRQLLEDNYGRKEPEKVAKVKELYEAVGMRAAFQQYEESSYRRLQELIEKHSNRLPKEIFLGLAQKIYKRQK
**Q.** With B3 as the molecule, how does the “prenyl transferase activity measured by luminescence, compared with wild type” value [1] read?
**A.** increased prenyl transferase activity as compared to the wild type protein; also recorded: activity greater than wild-type

**Q.** What about the “prenyl transferase activity measured by luminescence, compared with wild type” value ([1]; listed as Thr—269_Asp) of the same molecule?
**A.** more activity than the wild type protein sequence
